Source: patent US20090068103

Molecular target: Tenascin-C (TN-C) (Homo sapiens) (UniProt P24821)
Test: FP
Details: 5'-C6 amine conjugated to MAG2-DO3A chelator; (CH2CH2O)6 spacer between GGGAGGACG and CGUCGC; 3'-3'-T cap; nitrocellulose filter binding, TN-C titrated 1.25e-7 to 6.35e-12 M

Sequence of Tenascin-C (TN-C) (Homo sapiens) (P24821 23-2201): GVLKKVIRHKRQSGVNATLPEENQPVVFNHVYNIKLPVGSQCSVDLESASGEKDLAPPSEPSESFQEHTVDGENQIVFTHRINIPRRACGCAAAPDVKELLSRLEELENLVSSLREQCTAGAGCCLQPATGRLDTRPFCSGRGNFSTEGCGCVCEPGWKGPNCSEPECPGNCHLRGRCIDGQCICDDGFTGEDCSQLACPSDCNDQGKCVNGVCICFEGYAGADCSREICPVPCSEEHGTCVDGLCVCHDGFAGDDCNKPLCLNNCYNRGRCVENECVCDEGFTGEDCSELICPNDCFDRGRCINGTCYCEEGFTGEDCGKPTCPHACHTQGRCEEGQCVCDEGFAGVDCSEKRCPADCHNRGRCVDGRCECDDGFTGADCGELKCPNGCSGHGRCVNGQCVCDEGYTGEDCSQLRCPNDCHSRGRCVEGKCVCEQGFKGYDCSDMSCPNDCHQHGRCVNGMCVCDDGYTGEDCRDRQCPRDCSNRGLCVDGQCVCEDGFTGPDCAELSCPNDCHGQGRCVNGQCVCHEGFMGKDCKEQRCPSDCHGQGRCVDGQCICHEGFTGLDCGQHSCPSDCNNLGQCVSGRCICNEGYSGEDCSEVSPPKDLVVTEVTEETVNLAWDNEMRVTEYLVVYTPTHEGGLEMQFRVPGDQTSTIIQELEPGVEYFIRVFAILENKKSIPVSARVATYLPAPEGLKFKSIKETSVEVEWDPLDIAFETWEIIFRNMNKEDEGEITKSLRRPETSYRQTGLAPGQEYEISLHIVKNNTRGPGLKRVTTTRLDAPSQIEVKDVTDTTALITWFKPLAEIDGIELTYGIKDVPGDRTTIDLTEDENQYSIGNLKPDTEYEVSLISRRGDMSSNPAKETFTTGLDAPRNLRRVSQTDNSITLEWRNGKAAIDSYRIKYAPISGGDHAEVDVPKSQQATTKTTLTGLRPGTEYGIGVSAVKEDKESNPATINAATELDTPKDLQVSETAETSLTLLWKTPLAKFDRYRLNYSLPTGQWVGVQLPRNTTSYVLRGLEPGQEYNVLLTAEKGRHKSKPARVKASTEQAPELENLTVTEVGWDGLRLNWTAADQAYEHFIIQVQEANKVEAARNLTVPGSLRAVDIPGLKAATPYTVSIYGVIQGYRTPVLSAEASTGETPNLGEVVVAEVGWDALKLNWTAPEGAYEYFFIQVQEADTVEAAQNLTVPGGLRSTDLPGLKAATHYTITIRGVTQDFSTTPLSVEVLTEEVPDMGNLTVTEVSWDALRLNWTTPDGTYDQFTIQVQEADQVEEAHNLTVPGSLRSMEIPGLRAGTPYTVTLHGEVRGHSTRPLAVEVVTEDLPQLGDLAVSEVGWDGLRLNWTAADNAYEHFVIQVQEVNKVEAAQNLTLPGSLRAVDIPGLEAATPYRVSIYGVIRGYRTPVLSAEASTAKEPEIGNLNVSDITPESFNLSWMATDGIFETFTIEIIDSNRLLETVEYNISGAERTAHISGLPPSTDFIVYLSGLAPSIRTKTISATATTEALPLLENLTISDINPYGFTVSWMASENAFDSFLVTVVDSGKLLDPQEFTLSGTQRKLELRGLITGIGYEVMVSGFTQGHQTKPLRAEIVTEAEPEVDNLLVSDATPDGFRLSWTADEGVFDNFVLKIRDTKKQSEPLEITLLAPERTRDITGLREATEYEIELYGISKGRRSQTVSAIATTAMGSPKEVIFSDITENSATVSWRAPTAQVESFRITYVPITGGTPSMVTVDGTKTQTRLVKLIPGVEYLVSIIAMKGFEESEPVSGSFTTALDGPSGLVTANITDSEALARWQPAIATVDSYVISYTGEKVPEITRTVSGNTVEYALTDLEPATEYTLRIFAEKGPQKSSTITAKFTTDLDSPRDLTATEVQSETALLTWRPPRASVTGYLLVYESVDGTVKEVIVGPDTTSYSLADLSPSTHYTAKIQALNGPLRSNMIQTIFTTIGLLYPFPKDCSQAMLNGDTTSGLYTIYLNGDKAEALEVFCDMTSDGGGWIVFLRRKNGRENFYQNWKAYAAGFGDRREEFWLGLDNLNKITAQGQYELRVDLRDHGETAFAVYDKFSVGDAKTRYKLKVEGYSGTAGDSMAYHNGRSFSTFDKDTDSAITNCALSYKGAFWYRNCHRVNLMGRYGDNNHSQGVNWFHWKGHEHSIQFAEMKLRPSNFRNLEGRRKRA

## GGGAGGACGCGUCGCCGUAAUGGAUGUUUUGCUCCCUG [111In-TTA1-MAG2-DO3A]
  Kd: 1 nM
